Test results published in patent EP2226633A1.

Biological target: heterodimeric LIF receptor (murine gp130 and LIFRα) on transiently transfected Ba/F3 cells (mouse) (UniProt Q00560)
Assay: cell-based or functional assay

Chain of heterodimeric LIF receptor (murine gp130 and LIFRα) on transiently transfected Ba/F3 cells (mouse) (Q00560 23-917, chain 1 of 2): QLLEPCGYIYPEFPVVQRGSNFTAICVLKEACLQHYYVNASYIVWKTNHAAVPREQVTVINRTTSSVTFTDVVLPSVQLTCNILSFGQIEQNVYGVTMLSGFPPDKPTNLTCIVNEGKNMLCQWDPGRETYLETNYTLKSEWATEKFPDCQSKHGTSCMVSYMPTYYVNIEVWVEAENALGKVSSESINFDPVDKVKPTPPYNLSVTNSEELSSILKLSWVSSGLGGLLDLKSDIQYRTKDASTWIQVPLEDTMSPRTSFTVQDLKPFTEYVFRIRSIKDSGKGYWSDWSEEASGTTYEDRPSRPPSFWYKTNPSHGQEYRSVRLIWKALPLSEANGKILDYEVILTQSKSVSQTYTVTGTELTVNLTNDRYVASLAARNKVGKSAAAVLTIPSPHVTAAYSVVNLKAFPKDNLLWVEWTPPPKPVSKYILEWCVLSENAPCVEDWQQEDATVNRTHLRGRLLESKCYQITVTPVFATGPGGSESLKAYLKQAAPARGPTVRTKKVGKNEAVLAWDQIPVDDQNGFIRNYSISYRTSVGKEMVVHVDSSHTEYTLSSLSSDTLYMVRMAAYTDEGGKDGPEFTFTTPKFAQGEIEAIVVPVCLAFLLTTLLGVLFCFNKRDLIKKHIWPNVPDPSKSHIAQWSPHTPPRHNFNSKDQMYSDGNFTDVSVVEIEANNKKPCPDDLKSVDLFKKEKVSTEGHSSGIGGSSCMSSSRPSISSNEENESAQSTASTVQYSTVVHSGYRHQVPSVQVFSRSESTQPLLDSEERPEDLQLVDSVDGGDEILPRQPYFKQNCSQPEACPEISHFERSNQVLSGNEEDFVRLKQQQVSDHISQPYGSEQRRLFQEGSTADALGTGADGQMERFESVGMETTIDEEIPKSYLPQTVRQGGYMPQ
Chain of heterodimeric LIF receptor (murine gp130 and LIFRα) on transiently transfected Ba/F3 cells (mouse) (P42703 44-1092, chain 2 of 2, further chain): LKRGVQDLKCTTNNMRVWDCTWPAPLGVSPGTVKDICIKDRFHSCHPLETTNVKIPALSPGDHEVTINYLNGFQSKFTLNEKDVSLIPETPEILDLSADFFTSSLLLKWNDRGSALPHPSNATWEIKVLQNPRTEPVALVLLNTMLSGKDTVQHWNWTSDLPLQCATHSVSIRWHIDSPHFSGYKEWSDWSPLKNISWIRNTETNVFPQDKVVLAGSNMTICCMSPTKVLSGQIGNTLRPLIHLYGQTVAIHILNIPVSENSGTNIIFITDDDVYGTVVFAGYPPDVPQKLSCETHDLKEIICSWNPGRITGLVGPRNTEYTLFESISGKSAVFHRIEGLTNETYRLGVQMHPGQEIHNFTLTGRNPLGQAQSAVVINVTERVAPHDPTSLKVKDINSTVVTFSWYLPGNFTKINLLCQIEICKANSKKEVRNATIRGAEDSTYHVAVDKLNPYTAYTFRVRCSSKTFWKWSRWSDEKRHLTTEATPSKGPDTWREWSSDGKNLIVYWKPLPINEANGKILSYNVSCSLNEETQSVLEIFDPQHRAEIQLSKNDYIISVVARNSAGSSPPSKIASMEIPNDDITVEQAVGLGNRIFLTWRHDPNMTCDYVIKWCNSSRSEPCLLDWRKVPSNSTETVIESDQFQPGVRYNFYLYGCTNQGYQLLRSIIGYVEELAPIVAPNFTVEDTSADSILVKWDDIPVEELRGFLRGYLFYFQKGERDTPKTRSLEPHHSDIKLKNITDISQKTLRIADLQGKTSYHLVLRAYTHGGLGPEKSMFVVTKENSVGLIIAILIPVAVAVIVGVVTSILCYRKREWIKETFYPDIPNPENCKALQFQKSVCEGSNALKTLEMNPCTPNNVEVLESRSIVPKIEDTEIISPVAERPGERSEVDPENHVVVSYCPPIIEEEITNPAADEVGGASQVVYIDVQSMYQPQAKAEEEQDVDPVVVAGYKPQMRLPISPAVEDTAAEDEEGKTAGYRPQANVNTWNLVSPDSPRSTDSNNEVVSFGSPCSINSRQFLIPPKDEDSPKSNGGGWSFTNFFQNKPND

human EPO splice variant hS3 (complete loss of exon 3) with C-terminal V5/His tag, produced in HEK293 cells (from UniProt P01588 28-193) (ligand)
suppression of proliferation of M1 cells (MTT assay, 72 h, 15 nM hS3): 10%
